Data from US7880053B2, “Methods of using transformed plants expressing plant-derived acyl-coenzyme-A-binding proteins in phytoremediation” (priority 2007, dated 2011).
Entries after “also recorded” stand apart in the source; their conditions may differ.

Key:
[1] = Heavy-metal-binding assay using metal-chelate affinity chromatography, Pb(II)-equilibrated matrix; conditions: for binding of in vitro translated ACBP to Pb(II): [35S]methionine-labeled protein, SDS-PAGE autoradiography, FIG. 2B
Source text: (§1) The coding regions of ACBP1, ACBP2 and ACBP6 were generated by RT-PCR for construction of pGEM-T EASY (Promega) derivatives for in vitro transcription/translation. Primers used in RT-PCR were as follows: ACBP1 (ML190 (SEQ ID NO:20) and ML917 (SEQ ID NO:17), ACBP2 (ML902 (SEQ ID NO:21) and ML903 (SEQ ID NO:22)), and ACBP6 (ML812 (SEQ ID NO:23) and ML751 (SEQ ID NO:2)). The PCR products were subsequently cloned into pGEM-T EASY vector (Promega) for in vitro transcription/translation using the TNT® T7/SP6 Coupled Wheat Germ Extract System (Promega) following the manufacturer's instruction. Pb(II)-, Cd(II)-, and Cu(II)-equilibrated matrices for metal-binding assays were prepared by stripping Ni-NTA agarose (Qiagen) of nickel and re-equilibrating with 0.1 M Pb(NO3)2 (Aldrich), CdCl2 (Aldrich), or CuCl2 (Aldrich). Twenty μl of Pb(II)-, Cd(II)-, or Cu(II)-equilibrated matrix, 545 μl of 50 mM KH2PO4, 300 mM NaCl, pH 7.4, and [^35S]methionine-labeled protein were added to a microfuge tube (Dykema et al., Plant Mol. Biol. 41: 139-150, 1999) and rotated on a wheel at 4° C. for 1 h. Subsequently, the matrix was washed 3 times with 1.0 ml of 50 mM KH2PO4, 300 mM NaCl, pH 7.5. The binding protein was eluted with 200 μl of 50 mM KH2PO4, 300 mM NaCl, 500 mM imidazole, pH 4.5, followed by extraction with 200 μl of 2% SDS, 50 mM DTT, heating at 85° C. for 3 min and analysis by SDS-PAGE followed by autoradiography.

[2] = Heavy-metal-binding assay using metal-chelate affinity chromatography, Cd(II)-equilibrated matrix; conditions: FIG. 2C
Source text: as §1, with “The binding protein was eluted with 200 μl of 50 mM KH2PO4, 300 mM NaCl, 500 mM imidazole, pH 4.5, followed by extraction with 200 μl of 2% SDS, 50 mM DTT, heating at 85° C. for 3 min and analysis by SDS-PAGE followed by autoradiography.” left out

[3] = Heavy-metal-binding assay using metal-chelate affinity chromatography, Cu(II)-equilibrated matrix; conditions: FIG. 2C
Source text: as §1, with “The binding protein was eluted with 200 μl of 50 mM KH2PO4, 300 mM NaCl, 500 mM imidazole, pH 4.5, followed by extraction with 200 μl of 2% SDS, 50 mM DTT, heating at 85° C. for 3 min and analysis by SDS-PAGE followed by autoradiography.” left out

ACBP1 to ACBP5 mRNA = assay: RT-PCR of ACBP transcripts in root after Pb(II) treatment; type: in vivo, Arabidopsis thaliana; conditions: 1 mM Pb(NO3)2, 24 h, 3-week-old Col-0 seedlings, FIG. 1
Method: (§2) Arabidopsis thaliana wild-type Columbia (ecotype Col-0), ACBP1- and ACBP3-overexpressing transgenic plants (ecotype Col-0) were grown under 8 h dark at 21° C. and 16 h light at 23° C. cycles. For Pb(II)-inducible gene expression analysis, Arabidopsis seedlings were grown for 3 weeks in continuous light, treated with 1 mM Pb(NO3)2 or water (as control), and shoot and root samples were collected at 24 h post-treatment. For Pb(II) sensitivity tests, Arabidopsis seedlings were surface-sterilized and grown on Murashige and Skoog (Physiol. Plant. 15: 473-497, 1962) medium containing 2% sucrose with or without 0.75 mM Pb(NO3)2 (Sigma-Aldrich, St. Louis) for 2 to 3 weeks.
(§3) To determine if the regulation of Arabidopsis ACBP mRNAs responds to Pb(II) stress, we performed reverse transcription-PCR(RT-PCR) using root tissue RNA following treatment with 1 mM Pb(NO3)2. For RT-PCR, total RNA was extracted with TRIzol (Invitrogen) reagent, according to the manufacturer's protocol, from roots of 3-week-old wild-type Arabidopsis (Col-0) seedlings in the presence or absence (water as control) of 1 mM Pb(NO3)2. RT-PCR analysis was performed as according to the manufacturer (Invitrogen Cat No. 12371-019). Specific primers were designed based on mRNA sequences. […]

ACBP6 transcript = assay: as above; type: in vivo, Arabidopsis thaliana; conditions: 1 mM Pb(NO3)2, 24 h, 3-week-old Col-0 seedlings, FIG. 1
Method: as §2, §3

[4] = Lead-binding assay, fluorescence of dansylated (His)6-ACBP; conditions: 1 to 9 μM Pb(II), FIG. 2A
Method: Lead-binding assays and fluorescence measurements were carried out according to Funaba and Mathews (Mol. Endocrinol. 14:1583-1591, 2000) with minor modifications. Briefly, 3.2 μM of each purified (His)6-ACBP protein which was equilibrated in 20 mM phosphate buffer (pH 7.2) with 200 mM NaCl, were labeled with 8 μl of 200 mM dansyl aziridine (Molecular Probes, Cat. No. D151) and reacted for 2 h in a 1.5 ml Eppendorf tube at room temperature. The dansylated (His)6-ACBP proteins were then distributed to 8 wells of a 96-well microtiter plate (Nunc Cat. No. 236105). Various concentrations (0, 1.0, 2.0, 3.0, 4.0, 5.0, 7.0 and 9.0 μM) of Pb(NO3)2 (Aldrich, Cat. No. 203580) solutions were added and the reactions were incubated at room temperature for 1 h.
Fluorescence measurements were performed using a BIO-TEK FL600 Fluorescence Plate Reader (BIO-TEK Instrument, INC, USA) with excitation wavelength set at 360/40 nm and emission wavelength set at 530/25 nm. Prior to binding with lead, the dansyl aziridine coupled (His)6-ACBP recombinant proteins are sensitive to the conformational changes. After binding to Pb(II) molecules, the dansylated (His)6-ACBP recombinant proteins would change their conformations and the dye will show an increase in fluorescence excitation. […] Each experiment was repeated three times to ascertain results.

[5] = EDTA at 50 mM final concentration
[6] = [35S]methionine-labeled protein

O=C(O)CN(CCN(CC(=O)O)CC(=O)O)CC(=O)O [EDTA, ethylenediaminetetraacetic acid, reference compound]
effect on binding of ACBP2 to Pb(II) ([1]; EDTA at 50 mM final concentration, FIG. 2C): inhibited | effect on binding of ACBP2 to Cd(II) [2, 5]: inhibited | effect on binding of ACBP2 to Cu(II) [3, 5]: inhibited

O=[N+]([O-])[O-].O=[N+]([O-])[O-].[Pb+2] [Pb(II)]
mRNA expressions of ACBP1 to ACBP5 in roots (ACBP1 to ACBP5 mRNA): increase | transcript of ACBP6 in roots (ACBP6 transcript): little change

B1: (His)6-ACBP4: recombinant (His)6-ACBP4 from pRSET B-derived vector pAT184 in E. coli (protein, UniProt Q9MA55 1-668, looked up)
Acyl-CoA-binding …: MAMPRATSGPAYPERFYAAASYVGLDGSDSSAKNVISKFPDDTALLLYALYQQATVGPCNTPKPSAWRPVEQSKWKSWQGLGTMPSIEAMRLFVKILEEDDPGWYSRASNDIPDPVVDVQINRAKDEPVVENGSTFSETKTISTENGRLAETQDKDVVSEDSNTVSVYNQWTAPQTSGQRPKARYEHGAAVIQDKMYIYGGNHNGRYLGDLHVLDLKSWTWSRVETKVATESQETSTPTLLAPCAGHSLIAWDNKLLSIGGHTKDPSESMQVKVFDPHTITWSMLKTYGKPPVSRGGQSVTMVGKTLVIFGGQDAKRSLLNDLHILDLDTMTWDEIDAVGVSPSPRSDHAAAVHAERFLLIFGGGSHATCFDDLHVLDLQTMEWSRPAQQGDAPTPRAGHAGVTIGENWFIVGGGDNKSGASESVVLNMSTLAWSVVASVQGRVPLASEGLSLVVSSYNGEDVLVAFGGYNGRYNNEINLLKPSHKSTLQTKTLEAPLPGSLSAVNNATTRDIESEVEVSQEGRVREIVMDNVNPGSKVEGNSERIIATIKSEKEELEASLNKERMQTLQLRQELGEAELRNTDLYKELQSVRGQLAAEQSRCFKLEVDVAELRQKLQTLETLQKELELLQRQKAASEQAAMNAKRQGSGGVWGWLAGSPQEKDDDSP
modifications: His6 tag
notes: recombinant (His)6-ACBP4 from pRSET B-derived vector pAT184 in E. coli
relative fluorescence intensity in the presence of Pb(II), indicative of binding to Pb(II) [4]: much higher than the other recombinant ACBPs

B2: ACBP1: in vitro translated [35S]methionine-labeled Arabidopsis ACBP1 (SEQ ID NO: 27), wheat germ extract system (protein)
chain: MADWYQLAQSIIFGLIFAYLLAKLISILLAFKDENLSLTRNHTTQSEYENLRKVETLIGISGETDSLIAEQGSLRGDEDESDDDDWEGVESTELDEAFSAATAFVAAAASDRLSQKVSNELQLQLYGLYKIATEGPCTAPQPSALKMTARAKWQAWQKLGAMPPEEAMEKYIDLVTQLYPAWVEGGSKRRNRSGEAAGPMGPVFSSLVYEEESDNELKIDAIHAFAREGEVENLLKCIENGIPVNARDSEGRTPLHWAIDRGHLNVAEALVDKNADVNAKDNEGQTSLHYAVVCEREALAEFLVKQKADTTIKDEDGNSPLDLCESEWSWMREKKDSN
modifications: Arabidopsis
binding of in vitro translated ACBP to Pb(II) [1]: bind Pb(II) better than ACBP6; also recorded: slightly better binding than ACBP2

B3: ACBP2 (protein)
chain: MGDWAQLAQSVILGLIFSYLLAKLISIVVTFKEDNLSLTRHPEESQLEIKPEGVDSRRLDSSCGGFGGEADSLVAEQGSSRSDSVAGDDSEEDDDWEGVESTELDEAFSAATLFVTTAAADRLSQKVPSDVQQQLYGLYKIATEGPCTAPQPSALKMTARAKWQAWQKLGAMPPEEAMEKYIEIVTQLYPTWLDGGVKAGSRGGDDAASNSRGTMGPVFSSLVYDEESENELKIDAIHGFAREGEVENLLKSIESGIPVNARDSEGRTPLHWAIDRGHLNIAKVLVDKNADVNAKDNEGQTPLHYAVVCDREAIAEFLVKQNANTAAKDEDGNSPLDLCESDWPWIRDSAKQAD
modifications: Arabidopsis
binding of in vitro translated ACBP to Pb(II) [1]: bind Pb(II) better than ACBP6 | binding of in vitro translated ACBP to Cd(II) [2, 6]: binds Cd(II) and Cu(II) better than ACBP6 | binding of in vitro translated ACBP to Cu(II) [3, 6]: binds Cd(II) and Cu(II) better than ACBP6

B4: (His)6-ACBP6: recombinant (His)6-ACBP6, 18.9 kDa inclusive of His-tag, from vector pAT335 in E. coli (protein, UniProt P57752 1-92, looked up)
Acyl-CoA-binding …: MGLKEEFEEHAEKVNTLTELPSNEDLLILYGLYKQAKFGPVDTSRPGMFSMKERAKWDAWKAVEGKSSEEAMNDYITKVKQLLEVAASKAST
modifications: His6 tag
notes: recombinant (His)6-ACBP6, 18.9 kDa inclusive of His-tag, from vector pAT335 in E. coli
relative fluorescence intensity in the presence of Pb(II), indicative of binding to Pb(II) [4]: bind Pb(II) less well than ACBP1

B5: ACBP6: in vitro translated [35S]methionine-labeled Arabidopsis ACBP6 (SEQ ID NO: 26), 10-kDa ACBP (protein)
chain: B4 Acyl-CoA-binding …
modifications: Arabidopsis
binding of in vitro translated ACBP to Pb(II) [1]: bind Pb(II) less well than ACBP1
